From paper PMC6499816 (2019) come the findings set out here.

Holding throughout (test): BLI (biotin peptide on tip)
One experiment addresses T1, FYCO1 (Homo sapiens (Human), UniProt Q9BQS8).
T1 chain: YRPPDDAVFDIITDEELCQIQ

The target of a further experiment is T2, ATG13 (Homo sapiens (Human), UniProt O75143).
T2 chain: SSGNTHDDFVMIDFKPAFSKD

The next experiment addresses T3, P62 (Homo sapiens (Human), UniProt Q13501).
T3 chain: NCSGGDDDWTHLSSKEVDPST

B1: LC3C (protein)
chain: MPPPQKIPSVRPFKQRKSLAIRQEEVAGIRAKFPNKIPVVVERYPRETFLPPLDKTKFLVPQELTMTQFLSIIRSRMVLRATEAFYLLVNNKSLVSMSATMAEIYRDYKDEDGFVYMTYASQETFG
Regarding B1, the Kd (commonly a measure of binding affinity in units of concentration) with FYCO1 is 3000 nM; in the experiment with ATG13, 480 nM; with P62, 2700 nM.
